Laboratory results as given in patent publication US20040248211A1, “ICAM-related protein” (priority 1992, published 2004).

Key:
resting lymphocytes = experiment: Restoration of anti-CD3 proliferation by IL-2; format: cell-based; details: human rIL-2 30 U/ml
Method: Human PBL were fractionated and incubated on immobiized monoclonal antibodies as described in Section I above. The cells were collected, washed and replated on anti-CD3 either in the presence or absence of human rIL-2 at 30 U/ml.

Jurkat T leukemic cells = experiment: F-actin and G-actin cell content; format: cell-based, human
Method: Cellular shape changes (such as cell spreading) as well as T-cell activation are associated with changes in the cytoskeletal actin network manifested by alteration of the ratio of globular actin (G-actin) to filamentous actin (F-actin). To test whether the engagement by ICAM-R antibodies of ICAM-R expressed on Jurkat T leukemic cells would induce changes in cellular actin ratios, studies measuring F-actin and G-actin cell content were carried out by methods known in the art.

human PBL = experiment: SEA-induced aggregation of PBL; format: cell-based; details: versus plate-bound B-H9
ICAM-R = biological target: T1, ICAM-R (Homo sapiens, UniProt P32942); experiment: FACS binding to COS cell transfectants; details: antibody 5.0 ug/ml
T1 construct: express the full length ICAM-1 and ICAM-R proteins, respectively; expressed in transfected cells; host or cells: COS cells, DEAE-dextran, plasmid pcDNA1AmpICAM-R
T1 sequence (P32942 30-547): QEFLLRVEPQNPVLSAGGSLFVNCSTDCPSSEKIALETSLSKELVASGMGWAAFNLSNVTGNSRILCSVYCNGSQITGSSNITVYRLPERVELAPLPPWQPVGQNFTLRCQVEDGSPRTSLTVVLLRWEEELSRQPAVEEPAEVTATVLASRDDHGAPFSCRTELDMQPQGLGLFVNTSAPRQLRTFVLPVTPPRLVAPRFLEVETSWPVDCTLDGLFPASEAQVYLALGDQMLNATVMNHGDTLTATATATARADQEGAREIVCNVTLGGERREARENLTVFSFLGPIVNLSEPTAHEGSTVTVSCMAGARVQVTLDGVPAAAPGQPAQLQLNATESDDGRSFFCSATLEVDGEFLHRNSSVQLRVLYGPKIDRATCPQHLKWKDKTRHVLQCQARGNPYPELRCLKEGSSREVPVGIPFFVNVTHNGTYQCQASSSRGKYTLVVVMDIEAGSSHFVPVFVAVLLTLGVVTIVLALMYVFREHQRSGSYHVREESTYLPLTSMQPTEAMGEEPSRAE
Method: (§1) For the anti-ICAM-R monoclonal antibody binding assay, COS cells transfected with constructs encoding the ICAM-R chimeric proteins or control constructs were removed from the plates by EDTA treatment and aliquoted at 2.5×10^5 cells per well in a 96-well round bottom plate. Cells were washed 3 times with ice cold washing buffer (PBS containing 1% BSA and 0.05% sodium azide). Anti-ICAM-R monoclonal antibody was applied at 5.0 ug/ml in 50 ul final volume and incubated on ice for 30 minutes. Cells were then washed three times with cold washing buffer and incubated with the FITC labeled secondary antibody (sheep anti-mouse IgG F(ab′)2) at a 1:100 dilution on ice for 30 minutes in dark in 50 ul final volume. After the incubation, cells were washed again for three times in the ice cold washing buffer and resuspended in 200 ul of 1% paraformaldehyde. The samples were analyzed on a Becton-Dickinson FACScan instrument. Results of the assay are given below in Table 5 as percent positive COS cell transfectants, wherein MOPC 21 (IgG1) and UPC 10 (IgG2a) are isotype matched controls, 18E3D is an ICAM-1 specific monoclonal antibody and ICR-1.1 to ICR-9.2 are ICAM-R specific monoclonal antibodies. The reactivities of monoclonal antibodies ICR-1.1 through ICR-9.2 were assayed in a different experiment than monoclonal antibodies ICR-12.1 through ICR-17.1.

ICAM-1 = biological target: T2, ICAM-1 (Homo sapiens, UniProt P05362); experiment: FACS binding to COS cell transfectants; details: antibody 5.0 ug/ml
T2 construct: express the full length ICAM-1 and ICAM-R proteins, respectively; expressed in transfected cells; host or cells: COS cells, DEAE-dextran, plasmid pcDNA1AmpICAM-1
T2 sequence (P05362 28-532): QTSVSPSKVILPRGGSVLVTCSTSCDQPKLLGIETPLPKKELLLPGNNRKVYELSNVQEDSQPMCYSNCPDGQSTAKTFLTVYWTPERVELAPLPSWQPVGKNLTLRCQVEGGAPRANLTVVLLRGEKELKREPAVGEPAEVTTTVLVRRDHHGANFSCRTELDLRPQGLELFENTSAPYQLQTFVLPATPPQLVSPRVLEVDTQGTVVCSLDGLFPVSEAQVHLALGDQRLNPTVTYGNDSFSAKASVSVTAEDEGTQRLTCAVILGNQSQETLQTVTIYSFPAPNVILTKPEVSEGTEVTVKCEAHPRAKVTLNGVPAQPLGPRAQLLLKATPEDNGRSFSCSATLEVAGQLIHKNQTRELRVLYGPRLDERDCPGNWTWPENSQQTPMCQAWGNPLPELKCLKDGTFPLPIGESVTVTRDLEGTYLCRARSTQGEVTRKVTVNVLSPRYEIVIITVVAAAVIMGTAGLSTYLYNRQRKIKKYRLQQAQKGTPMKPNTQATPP
Method: as §1

[1] = biological target: T3, Protein 3 (ICAM-R domains 1-3 fused to ICAM-1) (Homo sapiens, UniProt P05362+P32942, A326V/A340P/A352Q/A353P/D347N/D369N/D382A/E323K/E366P/E384Q/F374S/F385L/G339H/H327S/L386I/M337E/N363K/P354L/P357R/Q343K/Q356P/Q361L/Q393E/R388K/S322R/S330T/S335K/S367E/S390Q/S391T/T325E/T331E/V342A/V392R); experiment: FACS binding to COS cell transfectants; details: antibody 5.0 ug/ml
T3 construct: domains of ICAM-R (residues 1 to 291) fused to ICAM-1 (residues 317 to 532); ICAM-1 residues 317 to 532 (fusion partner in the same polypeptide); expressed in transfected cells; host or cells: COS cells, plasmid pcDNAAmp.RD1-3.1D4-5
T3 sequence (P32942+P05362 fused with the stated changes): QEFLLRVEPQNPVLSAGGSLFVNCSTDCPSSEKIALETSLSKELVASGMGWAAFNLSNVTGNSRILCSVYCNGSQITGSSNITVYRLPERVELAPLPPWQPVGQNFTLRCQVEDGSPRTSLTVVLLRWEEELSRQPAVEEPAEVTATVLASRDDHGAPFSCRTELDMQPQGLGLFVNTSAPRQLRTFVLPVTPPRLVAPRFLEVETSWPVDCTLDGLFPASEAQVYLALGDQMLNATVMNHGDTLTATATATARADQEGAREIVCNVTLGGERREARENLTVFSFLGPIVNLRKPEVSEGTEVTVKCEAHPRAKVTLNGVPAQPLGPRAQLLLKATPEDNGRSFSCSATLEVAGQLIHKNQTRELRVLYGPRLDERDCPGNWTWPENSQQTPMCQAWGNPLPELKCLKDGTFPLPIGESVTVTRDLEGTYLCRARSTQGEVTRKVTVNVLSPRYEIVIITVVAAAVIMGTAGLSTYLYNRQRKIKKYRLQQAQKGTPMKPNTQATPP
Description: FIG. 7 is a diagram of the chimeric proteins whose construction is outlined below. Protein number 1 contains the amino-terminal immunoglobulin-like domain of ICAM-R (residues 1 to 93) fused to ICAM-1 (residue 117 to 532). Protein number 2 contains the first two amino terminal immunoglobulin-like domains of ICAM-R (residues 1 to 190) fused to ICAM-1 (residues 216 to 532). Protein number 3 contains the first three immunoglobulin-like domains of ICAM-R (residues 1 to 291) fused to ICAM-1 (residues 317 to 532).
as §1

B1: ICR-1.1: anti-ICAM-R monoclonal antibody, IgG2a, domain 1, ATCC HB 11053 (antibody, V domains shown)
VH: QVQLQQSGAELAKPGASVKMSCKASGYTFTVYWMHWVKQRPGQGLEWIGYINPNTDYTEYNQRFQDKATLTADKSSSTAYMQLSSLTSEDSAVYYCARWGGNSYGLDYWGQGTSVTVSS
VL: QIVLTQSPALMSASPGEKVTMTCSASSSVSYIYWYQQKPRSSPKPWIYLTSNLASGVPARFSGSGSGASYSLTISIMEAEDAATYYCQQWKSIPLTFGAGTKLELK
proliferative response to anti-CD3 after prepulse, with added IL-2 (resting lymphocytes): completely restored proliferative responses | time to peak F-actin content (Jurkat T leukemic cells; OKT3 plus gam, ICR-1.1 without gam): ≤ 60 min | F-actin content (Jurkat T leukemic cells; OKT3 plus goat anti-mouse crosslinker (gam), ICR-1.1 without gam): slight transient increase in F-actin content | cellular G-actin (Jurkat T leukemic cells; with gam crosslinker): gradual decrease in cellular G-actin | rise of F-actin content (Jurkat T leukemic cells; with gam crosslinker, prolonged plateau): 75-100% | SEA-induced cell aggregation, plate-bound antibody (human PBL): almost complete | percent positive COS cell transfectants, ICAM-R (ICAM-R): 54.33% | percent positive COS cell transfectants, ICAM-1 (ICAM-1): 2.43% | percent positive COS cell transfectants, Protein 3 [1]: 52.71%
